Nine molecules from patent US20190119389A1 (POTENZA THERAPEUTICS, published 2019) can be followed below.

Assay [1] concerns the target T1, recombinant human NRP-1 (human, UniProt O14786 22-856, limits assumed).
T1 construct: also called biotinylated human NRP-1
Description: blocking ELISA, average of n=2: SEMA3A coated, biotinylated human NRP-1 preincubated with IgG4 antibody; competitor SEMA3A. Background: An ELISA detects its analyte on a solid surface through an enzyme-linked reagent.
Target sequence in this assay (O14786 22-856 V179A limits assumed): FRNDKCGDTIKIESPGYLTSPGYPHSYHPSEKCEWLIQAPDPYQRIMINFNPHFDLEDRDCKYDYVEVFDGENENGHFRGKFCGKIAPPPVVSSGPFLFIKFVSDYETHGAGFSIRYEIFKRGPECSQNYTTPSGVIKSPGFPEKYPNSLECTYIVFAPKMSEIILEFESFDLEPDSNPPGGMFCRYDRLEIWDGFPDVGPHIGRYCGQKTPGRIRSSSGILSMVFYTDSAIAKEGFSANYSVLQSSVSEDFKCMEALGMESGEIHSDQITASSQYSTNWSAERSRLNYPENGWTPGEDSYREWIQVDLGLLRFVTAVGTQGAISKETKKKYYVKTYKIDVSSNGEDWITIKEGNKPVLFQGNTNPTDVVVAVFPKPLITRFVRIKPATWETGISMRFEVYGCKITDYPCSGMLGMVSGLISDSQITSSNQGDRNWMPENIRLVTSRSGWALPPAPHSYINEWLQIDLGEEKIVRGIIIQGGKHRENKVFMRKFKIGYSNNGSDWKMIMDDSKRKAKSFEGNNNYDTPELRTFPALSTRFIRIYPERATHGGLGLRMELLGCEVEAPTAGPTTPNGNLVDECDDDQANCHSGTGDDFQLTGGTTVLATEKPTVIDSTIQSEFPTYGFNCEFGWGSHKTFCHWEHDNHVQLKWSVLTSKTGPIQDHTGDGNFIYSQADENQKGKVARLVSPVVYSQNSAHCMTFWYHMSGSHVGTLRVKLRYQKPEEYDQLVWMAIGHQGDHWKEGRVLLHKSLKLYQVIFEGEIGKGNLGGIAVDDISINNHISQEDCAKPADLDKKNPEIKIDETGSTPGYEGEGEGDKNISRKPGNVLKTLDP

The next assay addresses T2, Cyno NRP-1 His (cynomolgus monkey, UniProt O14786 22-856 (human entry), limits assumed).
T2 construct: Recombinant monomeric protein; also called cynomolgus monkey NRP-1-His; cNRP-1; not shown: His tag
T2 chain: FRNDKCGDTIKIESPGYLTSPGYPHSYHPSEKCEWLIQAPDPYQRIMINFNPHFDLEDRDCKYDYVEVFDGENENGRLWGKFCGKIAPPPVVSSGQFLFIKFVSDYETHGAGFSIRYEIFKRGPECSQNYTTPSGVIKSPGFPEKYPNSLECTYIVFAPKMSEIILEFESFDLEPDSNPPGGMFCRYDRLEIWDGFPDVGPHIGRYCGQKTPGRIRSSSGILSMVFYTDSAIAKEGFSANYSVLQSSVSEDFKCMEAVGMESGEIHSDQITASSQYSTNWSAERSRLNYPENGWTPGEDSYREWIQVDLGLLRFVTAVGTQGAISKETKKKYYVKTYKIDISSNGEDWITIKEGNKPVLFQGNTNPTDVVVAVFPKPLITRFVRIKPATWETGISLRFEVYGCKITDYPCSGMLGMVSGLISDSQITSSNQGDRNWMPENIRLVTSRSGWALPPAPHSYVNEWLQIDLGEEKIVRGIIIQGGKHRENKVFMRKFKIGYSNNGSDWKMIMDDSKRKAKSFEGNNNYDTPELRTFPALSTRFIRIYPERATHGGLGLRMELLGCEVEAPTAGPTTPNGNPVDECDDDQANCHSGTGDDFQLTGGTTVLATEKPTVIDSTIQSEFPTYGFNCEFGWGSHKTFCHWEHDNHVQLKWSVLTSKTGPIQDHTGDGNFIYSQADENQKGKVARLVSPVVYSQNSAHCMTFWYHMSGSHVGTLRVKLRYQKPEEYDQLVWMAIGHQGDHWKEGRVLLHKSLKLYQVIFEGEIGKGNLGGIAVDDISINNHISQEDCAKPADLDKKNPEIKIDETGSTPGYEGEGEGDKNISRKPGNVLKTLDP
Description: BLI Octet QKe, IgG4 S228P on AHC sensor, multi-concentration monomeric antigen, global 1:1 fit.

The target of the next assay is T3, Mouse NRP-1 His (mouse, UniProt P97333 22-856).
T3 construct: Recombinant monomeric protein; also called mNRP-1; not shown: His tag
The description is as above.

The next assay addresses T4, Human NRP-1 His (human, UniProt O14786 22-856).
T4 construct: Recombinant monomeric protein; Biotinylated in the MSD-SET assay; also called hNRP-1; not shown: His tag
The assay is described as above.

Assay [2] has as its target T1, recombinant human NRP-1. Description: blocking ELISA, average of n=2: human NRP-1 coated, VEGFA added with IgG4 antibody; competitor VEGFA.
For assay [3], the target named is T5, Recombinant human NRP-1-Fc fusion protein, a2b1b2 domains (human, UniProt O14786 147-583, limits assumed).
T5 construct: Only the named domains of hNRP-1 are in the construct; not shown: Fc
The experiment in a line: BLI Octet QKe, antibody on AHC sensor, NRP-1-Fc fragment 500 nM.

Assay [4] addresses T6, Recombinant human NRP-1-Fc fusion protein, a1a2b1b2 domains (human, UniProt O14786 22-583, limits assumed).
T6 construct: Only the named domains of hNRP-1 are in the construct; not shown: Fc
The description is as above.

For assay [5], the target named is T7, Recombinant human NRP-1-Fc fusion protein, a1a2b1 domains (human, UniProt O14786 22-424, limits assumed).
T7 construct: Only the named domains of hNRP-1 are in the construct; not shown: Fc
The assay is described as above.

Residue numbers refer to the chain shown, from its start. Names may count otherwise.

T3 sequence (P97333 22-856 limits assumed): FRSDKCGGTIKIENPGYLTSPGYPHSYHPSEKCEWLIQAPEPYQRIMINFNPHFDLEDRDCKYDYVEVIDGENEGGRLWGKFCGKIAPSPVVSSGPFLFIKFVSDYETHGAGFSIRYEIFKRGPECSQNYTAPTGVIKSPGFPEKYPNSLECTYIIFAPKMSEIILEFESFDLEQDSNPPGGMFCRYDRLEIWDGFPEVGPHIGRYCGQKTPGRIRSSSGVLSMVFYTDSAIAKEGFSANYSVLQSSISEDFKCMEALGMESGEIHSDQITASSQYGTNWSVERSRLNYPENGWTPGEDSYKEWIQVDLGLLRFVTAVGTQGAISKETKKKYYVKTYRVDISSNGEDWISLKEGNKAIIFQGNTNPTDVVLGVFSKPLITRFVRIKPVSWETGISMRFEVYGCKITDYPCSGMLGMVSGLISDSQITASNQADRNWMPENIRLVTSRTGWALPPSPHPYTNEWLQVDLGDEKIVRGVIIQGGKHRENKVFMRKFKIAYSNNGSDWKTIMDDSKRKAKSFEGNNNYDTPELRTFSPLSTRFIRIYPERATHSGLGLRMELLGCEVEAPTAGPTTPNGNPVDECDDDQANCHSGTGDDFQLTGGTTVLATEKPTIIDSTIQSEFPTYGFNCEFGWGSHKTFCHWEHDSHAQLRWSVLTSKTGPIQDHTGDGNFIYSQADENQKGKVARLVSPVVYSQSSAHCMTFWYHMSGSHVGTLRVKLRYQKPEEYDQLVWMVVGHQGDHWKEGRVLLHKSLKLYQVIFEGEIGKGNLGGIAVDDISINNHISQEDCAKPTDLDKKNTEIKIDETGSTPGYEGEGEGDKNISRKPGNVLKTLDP
T4 sequence (O14786 22-856 V179A limits assumed): as the sequence (O14786 22-856 V179A limits assumed) above
T5 sequence (O14786 147-583 V179A limits assumed): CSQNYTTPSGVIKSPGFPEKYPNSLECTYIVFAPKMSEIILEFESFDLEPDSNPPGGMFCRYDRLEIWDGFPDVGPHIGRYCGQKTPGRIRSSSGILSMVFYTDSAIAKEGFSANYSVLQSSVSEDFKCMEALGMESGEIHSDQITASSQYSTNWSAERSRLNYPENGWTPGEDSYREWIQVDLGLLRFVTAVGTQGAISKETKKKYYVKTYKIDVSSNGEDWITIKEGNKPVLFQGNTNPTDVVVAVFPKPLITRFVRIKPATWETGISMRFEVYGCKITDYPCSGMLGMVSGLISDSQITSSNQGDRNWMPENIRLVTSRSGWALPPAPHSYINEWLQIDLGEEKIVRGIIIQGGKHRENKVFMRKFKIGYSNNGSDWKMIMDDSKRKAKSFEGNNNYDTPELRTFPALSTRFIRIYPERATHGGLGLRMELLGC

B1: MAB5 IgG4 S228P (antibody, V domains shown)
VH: QVQLVQSGAEVKKPGASVKVSCKASGYTFTSYYMHWVRQAPGQGLEWMGIINPQGGDTSYAQKFQGRVTMTRDTSTSTVYMELSSLRSEDTAVYYCARDRGMYYASGFGPWGQGTLVTVSS
VL: EIVMTQSPGTLSLSPGERATLSCRASQSVSSSYLAWYQQKPGQAPRLLIYGASNRATGIPDRFSGSGSGTDFTLTISRLEPEDFAVYYCQQLSSFPITFGGGTKVEIKR
B1: the IC50 (as a rule, the concentration at which inhibition is half-maximal) with recombinant human NRP-1 [1] worked out at 2.9 nM. Moreover, the dissociation constant Kd (in general, a measure of binding affinity in units of concentration) was determined as 12 nM with Cyno NRP-1 His, 6.6 nM with Mouse NRP-1 His and 8.4 nM with Human NRP-1 His.

B2: MAB12 IgG4 S228P (antibody, V domains shown)
VH: EVQLLESGGGLVQPGGSLRLSCAASGFTFSSVAMVWVRQAPGKGLEWVSAISGSGGATYYADSVEGRFTISRDNSKNTLYLQMNSLRAEDTAVYYCAKDPGYDSSRYYYSNYGMDVWGQGTTVTVSS
VL: DIQMTQSPSSLSASVGDRVTITCRASQSISSYLNWYQQKPGKAPKLLIYGASSLQSGVPSRFSGSGSGTDFTLTISSLQPEDFATYYCQQTYSLYTFGGGTKVEIKR
For B2, the IC50 turned out to be 3.2 nM with recombinant human NRP-1 [2] and 1.2 nM with recombinant human NRP-1 [1]. Moreover, the Kd with Cyno NRP-1 His was 0.19 nM; in the assay with Mouse NRP-1 His, 0.16 nM; with Human NRP-1 His it was 0.12 nM.

B3: anti-NRP Antibody SEC10 (antibody, human IgG1, kappa, V domains shown)
VH: EVQLVESGGGLVQPGGSLRLSCAASGFTFSSYAMSWVRQAPGKGLEWVSQISPAGGYTNYADSVKGRFTISADTSKNTAYLQMNSLRAEDTAVYYCARGELPYYRMSKVMDVWGQGTLVTVSS
VL: DIQMTQSPSSLSASVGDRVTITCRASQYFSSYLAWYQQKPGKAPKLLIYGASSRASGVPSRFSGSGSGTDFTLTISSLQPEDFATYYCQQYLGSPPTFGQGTKVEIKR
Take B3: the binding result in assay [3] and in assay [4] was “binds” throughout.

B4: SEC3 (antibody, human IgG1, kappa, V domains shown)
VH: EVQLVESGGGLVQPGGSLRLSCAASGFTISGYGIHWVRQAPGKGLEWVAYIYPDSGYTDYADSVKGRFTISADTSKNTAYLQMNSLRAEDTAVYYCAREDFRNRRRLWYVMDYWGQGTLVTVSS
VL: DIQMTQSPSSLSASVGDRVTITCRASQDVSTAVAWYQQKPGKAPKLLIYSASFLYSGVPSRFSGSGSGTDFTLTISSLQPEDFATYYCQQAWAYLPTFGQGTKVEIKR
notes: Appendix A gives 144 as light chain and 145 as heavy chain; also called pan-anti-NRP-1 antibody
With B4, the binding result in assay [5] and in assay [4] was “binds” each time.

B5: MAB2 IgG4 S228P (antibody, V domains shown)
VH: QVQLVQSGAEVKKPGASVKVSCKASGYTFRSYYMLWVRQAPGQGLEWMGIIDPSDGSTSYAQKFQGRVTMTRDASTSTVYMELSSLRSEDTAVYYCARGARRITGYGMDVWGQGTTVIVSS
VL: DIQMTQSPSSVSASVGDRVTITCRASQGISSWLAWYQQKPGKAPKLLIYAASNLQSGVPSRFSGSGSGTDFTLTISSLQPEDFATYYCQQASVFPFTFGGGTKVEIKR
With B5, in the assay with recombinant human NRP-1 [1], the IC50 came out at 2.6 nM. Also, the Kd in the assay with Cyno NRP-1 His is 4.5 nM; with Mouse NRP-1 His, 5.1 nM; with Human NRP-1 His, 2.4 nM.

B6: MAB3 IgG4 S228P (antibody, V domains shown)
VH: QAQLVQSGAEVKKPGASVKVSCKASGYTFSRYYMHWVRQAPGQGLEWMGIINPLGGSTLYAQKFQGRVTMTRDTSTSTVYMELSSLRSEDTAVYYCARDLGYYGSGMHAWGQGTLVTVSS
VL: B5 VL with S31R, N53S, S92N, V93L, F94L
Consider B6, for which the IC50 in the assay with recombinant human NRP-1 [1] is 2 nM. Further, the Kd with Cyno NRP-1 His worked out at 7.3 nM; in the assay with Mouse NRP-1 His, 4.4 nM; with Human NRP-1 His it was 3.7 nM.

B7: MAB13 IgG4 S228P (antibody, V domains shown)
VH: QVQLQQWGAGLLKPSETLSLTCAVYGGSFRGYYWEWIRQPPGKGLEWIGEISHSGSTNYNPSLKSRVTISVDTSKNQFSLKLSSVTAADTAVYYCARARPYREPYGMDVWGQGTTVTVSS
VL: B5 VL with M4L, G28D, N53S, A91E, S92L, V93A, F96R
On to B7, for which the IC50 with recombinant human NRP-1 [2] stood at 2.9 nM; with recombinant human NRP-1 [1], 0.9 nM. Moreover, the Kd with Cyno NRP-1 His came to 0.94 nM; in the assay with Mouse NRP-1 His, 3.7 nM; in the assay with Human NRP-1 His, 0.96 nM.

B8: MAB4 IgG4 S228P (antibody, V domains shown)
VH: B6 VH with A2V, A109V
VL: B5 VL with S31R, N53S, S92N, V93L, F94L
B8: in the assay with recombinant human NRP-1 [1], the IC50 was 2.3 nM. For the same molecule, the Kd in the assay with Cyno NRP-1 His is 4.5 nM; in the assay with Mouse NRP-1 His, 2.3 nM; with Human NRP-1 His it was 3.1 nM.

B9: MAB14 IgG4 S228P (antibody, V domains shown)
VH: B7 VH with I37S, S84P
VL: B5 VL with M4L, G28D, N53S, A91E, S92L, V93A, F96R
As to B9, the results for the half-inhibitory concentration (IC50) with recombinant human NRP-1 [2] and with recombinant human NRP-1 [1] were 2.5 nM and 0.6 nM, respectively. Besides, the Kd in the assay with Cyno NRP-1 His turned out to be 0.74 nM; in the assay with Mouse NRP-1 His, 2.7 nM; in the assay with Human NRP-1 His, 0.87 nM.
